Data from publication PMC3347556.

Molecular target: Lys65 (UniProt position 65, ICSVSKQFTCA)
Assay: kinetics
Settings: 25 °C, not stated (0.1 M Tris-HCl buffer), Free enzyme (Vmax/KM profile) with D-Ala-pNA as substrate

D-aminopeptidase (DAP) (Ochrobactrum anthropi)
pKa: 7.4
